Data: the Immune Epitope Database (IEDB)

How the values were obtained:
[1] = biological target: HLA-A*23:01; test: IEDB peptide-MHC binding, purified MHC/direct/fluorescence; filed as Kd, often an IC50 or EC50 that approximates it; ≥ and ≤ were set here for values at or beyond the usual limits of such assays
[2] = biological target: HLA-A*24:03; test: as above
[3] = biological target: HLA-A*02:11; test: as above
[4] = biological target: HLA-A*02:12; test: as above
[5] = biological target: HLA-A*02:16; test: as above
[6] = biological target: HLA-A*03:01; test: as above
[7] = biological target: HLA-A*68:02; test: as above
[8] = biological target: HLA-A*29:02; test: as above
[9] = biological target: HLA-A*02:03; test: as above
[10] = biological target: HLA-A*02:19; test: as above
[11] = biological target: HLA-A*11:01; test: as above
[12] = biological target: HLA-B*51:01; test: IEDB peptide-MHC binding, purified MHC/competitive/fluorescence; filed as Kd, often an IC50 or EC50 that approximates it; ≥ and ≤ were set here for values at or beyond the usual limits of such assays
[13] = biological target: HLA-B*57:01; test: as above
[14] = biological target: HLA-A*69:01; test: as above
[15] = biological target: HLA-B*46:01; test: as above
[16] = biological target: HLA-A*02:01; test: as above
[17] = biological target: HLA-B*18:01; test: as above
[18] = biological target: HLA-B*39:01; test: as above
[19] = biological target: HLA-A*26:01; test: as above
[20] = biological target: HLA-B*15:17; test: as above
[21] = biological target: HLA-B*27:03; test: as above; settings: source organism: Giardia lamblia ATCC 50803
[22] = source organism: Rickettsia bellii OSU 85-389
[23] = source organism: Rickettsia bellii RML369-C
[24] = source organism: Giardia lamblia ATCC 50803

Question: With AKIALAVYK as the sequence, how does the Kd [1, 22] read?
Answer: ≥ 20 µM

Question: What about the Kd [2, 22] of the same sequence?
Answer: ≥ 20 µM

Question: What about the Kd [3, 22] of the same sequence?
Answer: ≥ 20 µM

Question: What about the Kd [4, 22] of the same sequence?
Answer: ≥ 20 µM

Question: What about the Kd [5, 22] of the same sequence?
Answer: ≥ 20 µM

Question: What about the Kd [6, 22] of the same sequence?
Answer: ≥ 20 µM

Question: And the Kd [7, 22]?
Answer: ≥ 20 µM

Question: What about the Kd [8, 22] of the same sequence?
Answer: ≥ 20 µM

Question: What about the Kd [9, 22] of the same sequence?
Answer: ≥ 20 µM

Question: What about the Kd [10, 22] of the same sequence?
Answer: ≥ 20 µM

Question: And the Kd [11, 22]?
Answer: 0.427 µM

Question: And the Kd [12, 23]?
Answer: ≥ 20 µM

Question: And the Kd [13, 23]?
Answer: ≥ 20 µM

Question: What about the Kd [14, 23] of the same sequence?
Answer: ≥ 20 µM

Question: And the Kd [15, 23]?
Answer: ≥ 20 µM

Question: What about the Kd [16, 23] of the same sequence?
Answer: ≥ 20 µM

Question: And the Kd [17, 23]?
Answer: ≥ 20 µM

Question: And the Kd [18, 23]?
Answer: ≥ 20 µM

Question: What about the Kd [19, 23] of the same sequence?
Answer: ≥ 20 µM

Question: And the Kd [20, 23]?
Answer: ≥ 20 µM

Question: For APDGFYPFK, which Kd [1, 24] is on record?
Answer: ≥ 20 µM

Question: What about the Kd [2, 24] of the same sequence?
Answer: ≥ 20 µM

Question: And the Kd [3, 24]?
Answer: ≥ 20 µM

Question: What about the Kd [4, 24] of the same sequence?
Answer: ≥ 20 µM

Question: And the Kd [5, 24]?
Answer: ≥ 20 µM

Question: What about the Kd [6, 24] of the same sequence?
Answer: ≥ 20 µM

Question: And the Kd [7, 24]?
Answer: ≥ 20 µM

Question: What about the Kd [8, 24] of the same sequence?
Answer: ≥ 20 µM

Question: What about the Kd [9, 24] of the same sequence?
Answer: ≥ 20 µM

Question: And the Kd [10, 24]?
Answer: ≥ 20 µM

Question: What about the Kd [11, 24] of the same sequence?
Answer: 0.248 µM

Question: What about the Kd [12, 24] of the same sequence?
Answer: ≥ 20 µM

Question: And the Kd [13, 24]?
Answer: ≥ 20 µM

Question: And the Kd [14, 24]?
Answer: ≥ 20 µM

Question: What about the Kd [15, 24] of the same sequence?
Answer: ≥ 20 µM

Question: And the Kd [21]?
Answer: ≥ 20 µM

Question: What about the Kd [16, 24] of the same sequence?
Answer: ≥ 20 µM

Question: And the Kd [17, 24]?
Answer: ≥ 20 µM

Question: What about the Kd [18, 24] of the same sequence?
Answer: ≥ 20 µM

Question: What about the Kd [19, 24] of the same sequence?
Answer: ≥ 20 µM

Question: And the Kd [20, 24]?
Answer: ≥ 20 µM
